Measured values as given in US20210371526A1.

Biological target: CD19 on tumor cells (Raji, Raji-Luc, NALM6, Reh) (human) (UniProt P15391)
Assay: cell-based or functional assay

Sequence of CD19 on tumor cells (Raji, Raji-Luc, NALM6, Reh) (human) (P15391 20-556): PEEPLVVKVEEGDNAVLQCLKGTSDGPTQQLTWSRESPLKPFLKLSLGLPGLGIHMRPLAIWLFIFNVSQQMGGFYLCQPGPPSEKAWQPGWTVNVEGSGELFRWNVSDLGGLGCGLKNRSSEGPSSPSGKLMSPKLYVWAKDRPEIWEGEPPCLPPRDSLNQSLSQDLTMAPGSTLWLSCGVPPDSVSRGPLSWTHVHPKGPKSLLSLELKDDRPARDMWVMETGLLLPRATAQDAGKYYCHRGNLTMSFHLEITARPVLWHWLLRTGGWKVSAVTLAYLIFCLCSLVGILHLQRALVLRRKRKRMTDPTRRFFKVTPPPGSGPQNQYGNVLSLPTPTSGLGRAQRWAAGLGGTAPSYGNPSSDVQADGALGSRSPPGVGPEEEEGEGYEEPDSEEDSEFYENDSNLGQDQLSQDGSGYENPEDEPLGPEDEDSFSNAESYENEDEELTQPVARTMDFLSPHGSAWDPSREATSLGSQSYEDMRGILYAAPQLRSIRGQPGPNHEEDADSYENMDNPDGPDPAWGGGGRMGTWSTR

EC50 of activation of Jurkat T cells with NFAT RE reporter in the presence of Raji target cells: 2.71 nM
Substance: Blincyto (bispecific antibody)
EC50 of CIK-mediated killing of NALM6 cells: 0.0773 nM
EC50 of CIK-mediated killing of Raji-LUC cells: 0.000595 nM
EC50 of CIK-mediated killing of Raji-LUC cells, second row: 0.00565 nM
EC50 of CIK-mediated killing of Reh cells: 0.0119 nM
EC50 of PBMC-mediated killing of Raji-LUC cells: 0.00545 nM
EC50 of PBMC-mediated killing of Raji-LUC cells, second row: 0.0212 nM
EC50 of PBMC-mediated killing of Raji-LUC cells, third row: 0.0226 nM
